{"source": "paper PMC7312390", "origin": "cited, not measured here", "key": {"His57": {"target": "His57 (UniProt position 57, VVTAAHCGVTT)", "conditions": "free (apo) chymotrypsin"}, "Cys25": {"target": "Cys25 (UniProt position 158, GSCGSCWAFSA)", "conditions": "free cysteine protease (Cys/His ion pair in the apo state)"}}, "data": [{"substance": "chymotrypsin (not stated in the article (PDB 4CHA is bovine, Bos taurus, alpha-chymotrypsin))", "values": [{"measurement": "pKa", "setting": "His57", "value": 7.5}]}, {"substance": "papain (Carica papaya (not stated in the article; inferred))", "values": [{"measurement": "pKa", "setting": "Cys25", "value": 3.3}]}]}
